# Experimental data as given in patent US20150210994A1 (CHILDREN S HOSPITAL OF PHILADELPHIA, published 2015).
# B1: mouse endothelial protein C receptor (mEPCR), full-length, on CHO-K1 cells (receptor, UniProt Q64695 18-242, looked up)
# chain: LCNSDGSQSLHMLQISYFQDNHHVRHQGNASLGKLLTHTLEGPSQNVTILQLQPWQDPESWERTESGLQIYLTQFESLVKLVYRERKENVFFPLTVSCSLGCELPEEEEEGSEPHVFFDVAVNGSAFVSFRPKTAVWVSGSQEPSKAANFTLKQLNAYNRTRYELQEFLQDTCVEFLENHITTQNMKGSQTGRSYTSLVLGILMGCFIIAGVAVGIFMCTSGRRC
# notes: whole, on cells; also called murine EPCR; mouse EPCR
# B2: human EPCR on CHO-K1 cells (receptor, UniProt Q9UNN8 18-238, looked up)
# chain: SQDASDGLQRLHMLQISYFRDPYHVWYQGNASLGGHLTHVLEGPDTNTTIIQLQPLQEPESWARTQSGLQSYLLQFHGLVRLVHQERTLAFPLTIRCFLGCELPPEGSRAHVFFEVAVNGSSFVSFRPERALWQADTQVTSGVVTFTLQQLNAYNRTRYELREFLEDTCVQYVQKHISAENTKGSQTSRSYTSLVLGVLVGSFIIAGVAVGIFLCTGGRRC
# notes: whole, on cells; also called hEPCR
# Tests used:
# [1] = target: mouse endothelial protein C receptor (mEPCR), full-length, on CHO-K1 cells (mouse) (UniProt Q64695); experiment: saturation binding on CHO-K1 cells with mEPCR, 10 to 1000 nM ligand; bound material eluted and quantified by western blot; binding to CHO-K1 cells without mEPCR subtracted; fit of bound against ligand concentration
# [2] = target: soluble mouse EPCR (mouse) (UniProt Q64695); experiment: isothermal titration calorimetry, soluble murine EPCR
# mPC F4L = target: T1, mPC F4L (mouse, UniProt P33587 42-460); experiment: HEK-293 supernatant on CHO-K1 cells with or without mEPCR, western blot
# T1 construct: Tested as HEK-293 supernatant after transient expression; Position 4 is counted on the mature polypeptide; also called mouse PC Phe4 to Leu
# T1 sequence (looked up): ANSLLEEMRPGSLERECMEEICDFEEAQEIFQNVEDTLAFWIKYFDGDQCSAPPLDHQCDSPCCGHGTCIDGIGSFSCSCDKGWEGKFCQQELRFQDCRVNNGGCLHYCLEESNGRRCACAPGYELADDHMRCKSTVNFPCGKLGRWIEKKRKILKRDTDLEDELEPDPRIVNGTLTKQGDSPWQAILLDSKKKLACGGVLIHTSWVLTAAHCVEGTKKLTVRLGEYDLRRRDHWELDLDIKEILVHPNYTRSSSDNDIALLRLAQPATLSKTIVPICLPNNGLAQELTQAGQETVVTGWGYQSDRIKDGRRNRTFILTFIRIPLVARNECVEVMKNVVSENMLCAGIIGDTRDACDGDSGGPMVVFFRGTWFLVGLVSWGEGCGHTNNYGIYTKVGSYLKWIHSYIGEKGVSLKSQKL
# Description: (§1) The protein whose mEPCR binding is under investigation is added onto CHO-K1 cells expressing mEPCR (mEPCR+ve) or not (mEPCR−ve). Binding is done in the presence of physiological concentration of calcium and magnesium (1.6 mM and 0.6 mM, respectively). Following washing, the bound material is eluted with EDTA (10 mM). The bound, unbound and a portion of total loaded material are then subjected to polyacrylamide gel electrophoresis, transferred to nitrocellulose and detected by western blotting using protein-specific antibodies. FIG. 2B: Human plasma-derived protein C (hPC) or murine PC (mPC) that are known ligands for murine EPCR, were incubated with CHO-KI cells with or without murine EPCR expression. […] A variant mFVIIa bearing part of the mPC Gla domain ([1-11 mPC)-mFVIIa) restored binding of this chimeric molecule to murine EPCR.
# (§2) FIG. 4A: The Gla domain of the (1-11 mPC)-mFVIIa is shown. The blue box represents the first 11 amino acids of the mouse PC (mPC) Gla domain, whereas the red box represents the portion of the Gla domain of mouse FVIIa. […] Individual mutations were performed to change one amino acid in mFVIIa with the corresponding in (1-11 mPC)-mFVIIa. Following transient expression in HEK-293 cells, supernatant with each protein was incubated with CHO-K1 cells with or without expression of the mouse EPCR receptor. […] From top to bottom, sequences are SEQ ID NOs: 1-5. […]
# mouse FVIIa (mFVIIa) = target: T2, mouse FVIIa (mFVIIa) (mouse, UniProt P70375 42-446); experiment: saturation binding on CHO-K1 cells with mEPCR, 10 to 1000 nM ligand; bound material eluted and quantified by western blot; binding to CHO-K1 cells without mEPCR subtracted; fit of bound against ligand concentration
# T2 construct: mature; Recombinant; Has a Gla domain; also called mF7a
# T2 sequence (looked up): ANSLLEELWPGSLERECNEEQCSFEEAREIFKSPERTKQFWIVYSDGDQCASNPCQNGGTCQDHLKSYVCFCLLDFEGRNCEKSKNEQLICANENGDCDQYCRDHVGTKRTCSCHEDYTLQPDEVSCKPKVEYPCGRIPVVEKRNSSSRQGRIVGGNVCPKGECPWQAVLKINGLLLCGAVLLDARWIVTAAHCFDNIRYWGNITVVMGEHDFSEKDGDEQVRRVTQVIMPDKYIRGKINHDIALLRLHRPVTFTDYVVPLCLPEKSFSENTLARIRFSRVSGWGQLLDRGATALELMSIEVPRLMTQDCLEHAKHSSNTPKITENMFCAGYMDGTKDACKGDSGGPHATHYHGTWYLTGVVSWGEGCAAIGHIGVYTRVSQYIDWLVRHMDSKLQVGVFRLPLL
# Description: as §1, with “FIG. 2A: Scheme for determining and quantifying binding of proteins to surface exposed mouse EPCR (mEPCR). The protein” for “The protein”
# FIG. 7. Increasing concentration of ligand (mFVIIa or [1-11 mPC]-mFVIIa) was incubated with CHO-K1 cells without mEPCR (−mEPCR) or with mEPCR (+mEPCR). The experimental strategy described in Example I was followed and bound material was visualized. Following subtraction of non-specific binding (material incubated on CHO-K1[-]mEPCR cells), corrected amount of bound material (nM per 10⁶ cells) was plotted vs. concentration of ligand (nM). […]
# [3] = target: human plasma-derived protein C (hPC) (human, UniProt P04070 43-461); experiment: CHO-K1 cells with or without murine EPCR, EDTA elution, western blot
# Chain of human plasma-derived protein C (hPC) (P04070 43-461): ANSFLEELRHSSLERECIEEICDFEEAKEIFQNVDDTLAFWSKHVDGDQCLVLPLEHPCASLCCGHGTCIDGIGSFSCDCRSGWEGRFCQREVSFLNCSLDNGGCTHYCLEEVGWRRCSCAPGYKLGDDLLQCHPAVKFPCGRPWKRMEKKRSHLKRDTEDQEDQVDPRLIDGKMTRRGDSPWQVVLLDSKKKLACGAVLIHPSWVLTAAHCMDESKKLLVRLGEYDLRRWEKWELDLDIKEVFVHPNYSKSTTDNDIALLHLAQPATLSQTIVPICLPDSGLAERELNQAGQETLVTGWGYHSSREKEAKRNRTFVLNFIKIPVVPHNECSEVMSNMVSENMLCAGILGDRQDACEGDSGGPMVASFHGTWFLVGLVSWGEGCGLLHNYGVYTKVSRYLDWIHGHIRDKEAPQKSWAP
# Description: as §1, with “FIG. 2A: Scheme for determining and quantifying binding of proteins to surface exposed mouse EPCR (mEPCR). The protein” for “The protein”
# murine protein C (mPC) = target: T3, murine protein C (mPC) (mouse, UniProt P33587 42-460); experiment: HEK-293 supernatant on CHO-K1 cells with or without mouse EPCR, western blot of the bound fraction
# T3 construct: also called mouse PC; mouse protein C
# T3 sequence (looked up): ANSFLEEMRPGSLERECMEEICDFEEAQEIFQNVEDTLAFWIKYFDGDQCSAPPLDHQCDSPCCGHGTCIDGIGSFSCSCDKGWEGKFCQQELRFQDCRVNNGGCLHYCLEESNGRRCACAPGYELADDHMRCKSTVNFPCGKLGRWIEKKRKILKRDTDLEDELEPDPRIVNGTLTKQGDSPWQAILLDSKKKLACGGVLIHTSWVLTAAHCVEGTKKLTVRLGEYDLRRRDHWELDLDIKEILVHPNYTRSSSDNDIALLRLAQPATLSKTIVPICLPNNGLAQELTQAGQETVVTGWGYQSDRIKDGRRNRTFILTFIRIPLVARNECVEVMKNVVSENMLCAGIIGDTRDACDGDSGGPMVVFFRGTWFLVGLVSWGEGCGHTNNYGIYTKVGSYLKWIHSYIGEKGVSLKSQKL
# Description: as §1, §2
# Human FVIIa (NovoSeven) = target: T4, Human FVIIa (NovoSeven) (human, UniProt P08709 61-466); experiment: CHO-K1 cells expressing human EPCR, western blot of bound fraction
# T4 construct: mature
# T4 sequence (looked up): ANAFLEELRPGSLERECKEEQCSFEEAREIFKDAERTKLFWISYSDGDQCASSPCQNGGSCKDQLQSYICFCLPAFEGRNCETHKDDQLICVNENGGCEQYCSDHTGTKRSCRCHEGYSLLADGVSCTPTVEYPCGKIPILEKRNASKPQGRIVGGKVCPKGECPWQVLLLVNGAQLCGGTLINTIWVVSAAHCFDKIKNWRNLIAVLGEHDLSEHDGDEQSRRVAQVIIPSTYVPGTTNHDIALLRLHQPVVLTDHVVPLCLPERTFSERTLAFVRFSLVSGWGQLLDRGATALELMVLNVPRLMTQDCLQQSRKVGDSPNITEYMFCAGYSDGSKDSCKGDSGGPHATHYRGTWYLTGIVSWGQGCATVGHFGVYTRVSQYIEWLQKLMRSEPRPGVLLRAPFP
# Description: as §1, with “FIG. 2A: Scheme for determining and quantifying binding of proteins to surface exposed mouse EPCR (mEPCR). The protein” for “The protein”
# (§3) FIG. 12. Binding of variants of human activated FVII with amino acid changes at position 8 (normally a Leucine). Conditioned medium from transient transfection was added on CHO-K1 cells expressing human EPCR, as described in FIG. 2. […] Following the wash of unbound material, the bound fraction was visualized by western blotting (shown in the bottom image). […] Human FVIIa (NovoSeven) is shown as a control for positive binding. […]
# [4] = target: T5, wildtype human FVIIa (Leu at position 8), PACE/furin construct (human, UniProt P08709 61-466); experiment: conditioned medium on CHO-K1 cells expressing human EPCR, western blot of bound fraction
# T5 construct: mature; Tested as conditioned medium from transiently transfected HEK-293 cells
# T5 sequence (looked up): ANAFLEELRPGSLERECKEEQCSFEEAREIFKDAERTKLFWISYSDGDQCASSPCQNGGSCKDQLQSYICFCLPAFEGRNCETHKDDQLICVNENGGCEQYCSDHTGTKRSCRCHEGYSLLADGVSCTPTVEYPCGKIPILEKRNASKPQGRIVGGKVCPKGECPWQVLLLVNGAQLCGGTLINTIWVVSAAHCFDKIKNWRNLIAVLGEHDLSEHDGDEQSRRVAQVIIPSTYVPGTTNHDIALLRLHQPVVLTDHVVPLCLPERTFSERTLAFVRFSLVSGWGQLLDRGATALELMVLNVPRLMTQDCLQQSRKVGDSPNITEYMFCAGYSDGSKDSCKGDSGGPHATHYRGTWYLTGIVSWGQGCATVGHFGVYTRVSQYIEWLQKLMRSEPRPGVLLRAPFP
# Description: as §1, with “FIG. 2A: Scheme for determining and quantifying binding of proteins to surface exposed mouse EPCR (mEPCR). The protein” for “The protein”
# as §3
molecule,measurement,setting,value
(1-11 mPC)-mFVIIa (from UniProt P70375 42-446) (enzyme),Kd,[1],0.34 µM
same,Kd,[2],0.48 µM
B1,binding result,mPC F4L,no binding
same,Kd,mouse FVIIa (mFVIIa),10.6 µM
same,binding result,[3],binds
same,binding result,murine protein C (mPC),binds
B2,binding result,Human FVIIa (NovoSeven),binds
same,binding result,[4],binds
